Experimental findings from article PMC2815779, “Structure and Kinetic Investigation of Streptococcus pyogenes Family GH38 α-Mannosidase” (PLoS ONE, 2010) are described below.

Substrate in series [1]: OC[C@H]1O[C@H](O[C@H]2[C@H](O)[C@@H](CO)OC(O)[C@H]2O)[C@@H](O)[C@@H](O)[C@@H]1O
The series is described as follows: purified protein. The series is classed as biochemical, Streptococcus pyogenes. The following applies: Zn2+.

Substrate in series [2]: Cc1cc(=O)oc2cc(O[C@H]3O[C@H](CO)[C@@H](O)[C@H](O)[C@@H]3O)ccc12
As to the kind of experiment: purified protein. The series is classed as biochemical, Streptococcus pyogenes. As to conditions: Zn2+.

B1: SpGH38 (Spy1604), family GH38 α-mannosidase (Streptococcus pyogenes serotype M1) (protein)
chain: MATKKVHIISHSHWDREWYMAYEQHHMRLINLIDDLLEVFQTDPDFHSFHLDGQTIILDDYLKVRPEREPEIRQAIASGKLRIGPFYILQDDFLTSSESNVRNMLIGKEDCDRWGASVPLGYFPDTFGNMGQTPQLMLKAGLQAAAFGRGIRPTGFNNQVDTSEKYSSQFSEISWQGPDNSRILGLLFANWYSNGNEIPTTEAEARLFWDKKLADAERFASTKHLLMMNGCDHQPVQLDVTKAIALANQLYPDYEFVHSCFEDYLADLADDLPENLSTVQGEITSQETDGWYTLANTASARIYLKQANTRVSRQLENITEPLAAMAYEVTSTYPHDQLRYAWKTLMQNHPHDSICGCSVDSVHREMMTRFEKAYEVGHYLAKEAAKQIADAIDTRDFPMDSQPFVLFNTSGHSKTSVAELSLTWKKYHFGQRFPKEVYQEAQEYLARLSQSFQIIDTSGQVRPEAEILGTSIAFDYDLPKRSFREPYFAIKVRLRLPITLPAMSWKTLALKLGNETTPSETVSLYDDSNQCLENGFLKVMIQTDGRLTITDKQSGLIYQDLLRFEDCGDIGNEYISRQPNHDQPFYADQGTIKLNIISNTAQVAELEIQQTFAIPISADKLLQAEMEAVIDITERQARRSQEKAELTLTTLIRMEKNNPRLQFTTRFDNQMTNHRLRVLFPTHLKTDHHLADSIFETVKRPNHPDATFWKNPSNPQHQECFVSLFDGENGVTIGNYGLNEYEILPDTNTIAITLLRSVGEMGDWGYFPTPEAQCLGKHSLSYSFESITKQTQFASYWRAQEGQVPVITTQTNQHEGTLAAEYSYLTGTNDQVALTAFKRRLADNALITRSYNLSNDKTCDFSLSLPNYNAKVTNLLEKDSKQSTPSQLGKAEILTLAWKKQ
notes: full length, residues 1-901, N-terminal His6-tag
As for B1, the Michaelis constant (Km) is 27 ± 0.75 mM in series [1] and 3.6 ± 1.0 mM in series [2].
